The sequences below were run on Escherichia coli TOP10 (assay: shrunken log2 fold change of peptide-encoding DNA abundance (4.5 h post-induction vs induction); higher = less antimicrobial activity (less host growth inhibition)). Conditions: time post-induction: 4.5 h; library: site-saturation at positions 5, 18, 19, 20.
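Also: peptides expressed intracellularly from a pBAD plasmid library in pooled LB shake-flask culture, induced with 0.3% L-arabinose, DNA abundance read by NGS, three biological replicates, DESeq2 with apeglm shrinkage.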

First: RRIRCRPPRLPRPRPRPYDPPRP
Second: RRIRLRPPRLPRPRPRPDMEPRP
The “shrunken log2 fold change” value of the first is lower: -0.914 for the first, 0.0384 for the second.

Going from RRIRGRPPRLPRPRPRPCVRPRP to RRIRSRPPRLPRPRPRPLTKPRP, the “shrunken log2 fold change” value falls from 0.079 to -0.175.

First: RRIRSRPPRLPRPRPRPGRYPRP
Second: RRIRPRPPRLPRPRPRPGCPPRP
The “shrunken log2 fold change” value of the first is lower: -0.344 for the first, 0.0239 for the second.

Going from RRIRDRPPRLPRPRPRPCHLPRP to RRIRARPPRLPRPRPRPDAPPRP, the “shrunken log2 fold change” value rises from -0.00196 to 0.942.

RRIRGRPPRLPRPRPRPMHFPRP and RRIRGRPPRLPRPRPRPNSIPRP are within 0.2 log units of each other in “shrunken log2 fold change” value: -0.0109 for the first, 0.00326 for the second.

RRIRERPPRLPRPRPRPHLSPRP and RRIRFRPPRLPRPRPRPFPPPRP are within 0.2 log units of each other in “shrunken log2 fold change” value: -0.19 for the first, -0.123 for the second.

RRIRTRPPRLPRPRPRPLPNPRP and RRIRERPPRLPRPRPRPMRIPRP are within 0.2 log units of each other in “shrunken log2 fold change” value: 0.203 for the first, 0.257 for the second.

RRIRTRPPRLPRPRPRPEFSPRP and RRIRYRPPRLPRPRPRPIADPRP are within 0.2 log units of each other in “shrunken log2 fold change” value: 0.00789 for the first, 0.0616 for the second.

RRIRLRPPRLPRPRPRPTWEPRP and RRIRSRPPRLPRPRPRPWEAPRP are within 0.2 log units of each other in “shrunken log2 fold change” value: 0.0313 for the first, 0.019 for the second.

Compared with RRIRLRPPRLPRPRPRPMHFPRP, RRIRFRPPRLPRPRPRPTENPRP is lower in “shrunken log2 fold change” value: 0.108 for the first, -0.115 for the second.

RRIRSRPPRLPRPRPRPDQWPRP and RRIRRRPPRLPRPRPRPISAPRP are within 0.2 log units of each other in “shrunken log2 fold change” value: -0.0262 for the first, 0.122 for the second.

RRIRWRPPRLPRPRPRPFFLPRP and RRIRTRPPRLPRPRPRPASDPRP are within 0.2 log units of each other in “shrunken log2 fold change” value: -0.0114 for the first, -0.141 for the second.

RRIRARPPRLPRPRPRPHFQPRP and RRIRQRPPRLPRPRPRPWHGPRP are within 0.2 log units of each other in “shrunken log2 fold change” value: 0.0811 for the first, 0.0373 for the second.

Compared with RRIRGRPPRLPRPRPRPVLRPRP, RRIRGRPPRLPRPRPRPLDCPRP is lower in “shrunken log2 fold change” value: 0.656 for the first, 0.141 for the second.

RRIRDRPPRLPRPRPRPCTMPRP and RRIRPRPPRLPRPRPRPCMKPRP are within 0.2 log units of each other in “shrunken log2 fold change” value: -0.0909 for the first, -0.0472 for the second.

RRIRSRPPRLPRPRPRPCWSPRP and RRIRPRPPRLPRPRPRPFESPRP are within 0.2 log units of each other in “shrunken log2 fold change” value: 0.0886 for the first, 0.17 for the second.

RRIRYRPPRLPRPRPRPHDCPRP and RRIRGRPPRLPRPRPRPIQCPRP are within 0.2 log units of each other in “shrunken log2 fold change” value: -0.00448 for the first, 0.0816 for the second.

Compared with RRIRDRPPRLPRPRPRPLVDPRP, RRIRFRPPRLPRPRPRPQSKPRP is higher in “shrunken log2 fold change” value: 0.11 for the first, 0.379 for the second.

Going from RRIRHRPPRLPRPRPRPWWHPRP to RRIRTRPPRLPRPRPRPTLNPRP, the “shrunken log2 fold change” value rises from -0.113 to 0.569.

RRIRLRPPRLPRPRPRPDNFPRP and RRIRLRPPRLPRPRPRPYRQPRP are within 0.2 log units of each other in “shrunken log2 fold change” value: 0.0569 for the first, -0.0238 for the second.

Going from RRIRNRPPRLPRPRPRPMMLPRP to RRIRVRPPRLPRPRPRPWCRPRP, the “shrunken log2 fold change” value falls from -0.0295 to -0.396.

RRIRWRPPRLPRPRPRPIWCPRP and RRIRCRPPRLPRPRPRPGSDPRP are within 0.2 log units of each other in “shrunken log2 fold change” value: 0.151 for the first, -0.0369 for the second.

Going from RRIRIRPPRLPRPRPRPTMPPRP to RRIRIRPPRLPRPRPRPSFVPRP, the “shrunken log2 fold change” value falls from -0.22 to -0.509.

First: RRIRCRPPRLPRPRPRPRPHPRP
Second: RRIRFRPPRLPRPRPRPVQLPRP
The “shrunken log2 fold change” value of the first is higher: 0.211 for the first, -0.189 for the second.

Compared with RRIRQRPPRLPRPRPRPEWCPRP, RRIRVRPPRLPRPRPRPCMIPRP is lower in “shrunken log2 fold change” value: -0.0929 for the first, -0.792 for the second.

RRIRLRPPRLPRPRPRPMWKPRP and RRIRTRPPRLPRPRPRPNSRPRP are within 0.2 log units of each other in “shrunken log2 fold change” value: -0.0297 for the first, -0.0848 for the second.

Going from RRIRERPPRLPRPRPRPTTRPRP to RRIRNRPPRLPRPRPRPCSLPRP, the “shrunken log2 fold change” value falls from 0.0679 to -0.262.

Going from RRIRDRPPRLPRPRPRPEQKPRP to RRIRDRPPRLPRPRPRPDRHPRP, the “shrunken log2 fold change” value falls from 0.0533 to -0.278.

Going from RRIRKRPPRLPRPRPRPMKTPRP to RRIRCRPPRLPRPRPRPKIYPRP, the “shrunken log2 fold change” value falls from 0.0431 to -0.643.

First: RRIRARPPRLPRPRPRPGGFPRP
Second: RRIRERPPRLPRPRPRPYTMPRP
The “shrunken log2 fold change” value of the first is higher: 0.518 for the first, -0.0431 for the second.
